# Measurements: patent US20230406885A1, “CYCLIC PEPTIDES FOR TRAPPING INTERLEUKIN-1 BETA” (MERCK SHARP & DOHME LLC, priority 2022, published 2023)
# *1 amine or outer side, *2 acyl side, *3 side chain or, on linkers, in order; H or OH if unused. [ ]: non-standard residue; d: D form. TyrEtNAc = L-tyrosine O-ethyl acetamide, (S)-3-(4-(2-acetamidoethoxy)phenyl)-2-aminopropanoic acid, CC(=O)NCCOc1ccc(C[C@H](N[*:1])C(=O)[*:2])cc1; 3AzaPhe4AcPip = (S)-3-(6-(4-acetylpiperazin-1-yl)pyridin-3-yl)-2-aminopropanoic acid, CC(=O)N1CCN(c2ccc(C[C@H](N[*:1])C(=O)[*:2])cn2)CC1; Pro(trans-4-NH2) = O=C([C@@H]1C[C@@H](N[*:3])CN1[*:1])[*:2]; Trp(βS-Me,4-F) = C[C@@H](c1c[nH]c2cccc(F)c12)[C@H](N)C(=O)O; Bip(4'-COOH) = N[C@@H](Cc1ccc(-c2ccc(C(=O)O)cc2)cc1)C(=O)O; hQ = L-homoglutamine, NC(=O)CCC[C@H](N[*:1])C(=O)[*:2]; 1Nal(3S-Me) = C[C@@H](c1cccc2ccccc12)[C@H](N)C(=O)O; Phe(4-COOH) = N[C@@H](Cc1ccc(C(=O)O)cc1)C(=O)O; h3Pal(5-CN) = N#Cc1cncc(CC[C@H](N)C(=O)O)c1; hTyr = N[C@@H](CCc1ccc(O)cc1)C(=O)O; hCha = N[C@@H](CCC1CCCCC1)C(=O)O; dNle = CCCC[C@@H](N)C(=O)O; dOrn = NCCC[C@@H](N)C(=O)O; dNva = CCC[C@@H](N)C(=O)O; dNMeA = CN[C@H](C)C(=O)O; Dab = NCC[C@H](N)C(=O)O; Dap = NC[C@H](N)C(=O)O
# B1: SEQ ID NO: 176 (Example No. 176) (peptide)
# peptide: cyclo([3AzaPhe4AcPip]W[Phe(4-COOH)]G[Pro(trans-4-NH2)][1Nal(3S-Me)]D[dNMeA]G[Bip(4'-COOH)][hQ]L[dA][h3Pal(5-CN)])
# SMILES: CC(=O)N1CCN(c2ccc(C[C@@H]3NC(=O)[C@H](CCc4cncc(C#N)c4)NC(=O)[C@@H](C)NC(=O)[C@H](CC(C)C)NC(=O)[C@H](CCCC(N)=O)NC(=O)[C@H](Cc4ccc(-c5ccc(C(=O)O)cc5)cc4)NC(=O)CNC(=O)[C@@H](C)N(C)C(=O)[C@H](CC(=O)O)NC(=O)[C@H]([C@@H](C)c4cccc5ccccc45)NC(=O)[C@@H]4C[C@@H](N)CN4C(=O)CNC(=O)[C@H](Cc4ccc(C(=O)O)cc4)NC(=O)[C@H](Cc4c[nH]c5ccccc45)NC3=O)cn2)CC1
# B2: SEQ ID NO: 180 (Example No. 180) (peptide)
# peptide: cyclo([3AzaPhe4AcPip]W[Phe(4-COOH)]G[Pro(trans-4-NH2)][1Nal(3S-Me)]D[dNMeA]G[Bip(4'-COOH)]KL[dNva][h3Pal(5-CN)])
# SMILES: CCC[C@H]1NC(=O)[C@H](CC(C)C)NC(=O)[C@H](CCCCN)NC(=O)[C@H](Cc2ccc(-c3ccc(C(=O)O)cc3)cc2)NC(=O)CNC(=O)[C@@H](C)N(C)C(=O)[C@H](CC(=O)O)NC(=O)[C@H]([C@@H](C)c2cccc3ccccc23)NC(=O)[C@@H]2C[C@@H](N)CN2C(=O)CNC(=O)[C@H](Cc2ccc(C(=O)O)cc2)NC(=O)[C@H](Cc2c[nH]c3ccccc23)NC(=O)[C@H](Cc2ccc(N3CCN(C(C)=O)CC3)nc2)NC(=O)[C@H](CCc2cncc(C#N)c2)NC1=O
# B3: SEQ ID NO: 175 (Example No. 175) (peptide)
# peptide: cyclo([3AzaPhe4AcPip]W[Phe(4-COOH)]G[Pro(trans-4-NH2)][1Nal(3S-Me)]D[dNMeA]G[Bip(4'-COOH)][Dap]L[dA][hCha])
# SMILES: CC(=O)N1CCN(c2ccc(C[C@@H]3NC(=O)[C@H](CCC4CCCCC4)NC(=O)[C@@H](C)NC(=O)[C@H](CC(C)C)NC(=O)[C@H](CN)NC(=O)[C@H](Cc4ccc(-c5ccc(C(=O)O)cc5)cc4)NC(=O)CNC(=O)[C@@H](C)N(C)C(=O)[C@H](CC(=O)O)NC(=O)[C@H]([C@@H](C)c4cccc5ccccc45)NC(=O)[C@@H]4C[C@@H](N)CN4C(=O)CNC(=O)[C@H](Cc4ccc(C(=O)O)cc4)NC(=O)[C@H](Cc4c[nH]c5ccccc45)NC3=O)cn2)CC1
# B4: SEQ ID NO: 170 (Example No. 170) (peptide)
# peptide: cyclo([TyrEtNAc]W[Phe(4-COOH)]G[Pro(trans-4-NH2)][Trp(βS-Me,4-F)]D[dNMeA]G[Bip(4'-COOH)]WL[dOrn][hTyr])
# SMILES: CC(=O)NCCOc1ccc(C[C@@H]2NC(=O)[C@H](CCc3ccc(O)cc3)NC(=O)[C@@H](CCCN)NC(=O)[C@H](CC(C)C)NC(=O)[C@H](Cc3c[nH]c4ccccc34)NC(=O)[C@H](Cc3ccc(-c4ccc(C(=O)O)cc4)cc3)NC(=O)CNC(=O)[C@@H](C)N(C)C(=O)[C@H](CC(=O)O)NC(=O)[C@H]([C@@H](C)c3c[nH]c4cccc(F)c34)NC(=O)[C@@H]3C[C@@H](N)CN3C(=O)CNC(=O)[C@H](Cc3ccc(C(=O)O)cc3)NC(=O)[C@H](Cc3c[nH]c4ccccc34)NC2=O)cc1
# B5: SEQ ID NO: 172 (Example No. 172) (peptide)
# peptide: cyclo([TyrEtNAc]W[Phe(4-COOH)]G[Pro(trans-4-NH2)][Trp(βS-Me,4-F)]D[dNMeA]G[Bip(4'-COOH)]WS[dA][hTyr])
# SMILES: CC(=O)NCCOc1ccc(C[C@@H]2NC(=O)[C@H](CCc3ccc(O)cc3)NC(=O)[C@@H](C)NC(=O)[C@H](CO)NC(=O)[C@H](Cc3c[nH]c4ccccc34)NC(=O)[C@H](Cc3ccc(-c4ccc(C(=O)O)cc4)cc3)NC(=O)CNC(=O)[C@@H](C)N(C)C(=O)[C@H](CC(=O)O)NC(=O)[C@H]([C@@H](C)c3c[nH]c4cccc(F)c34)NC(=O)[C@@H]3C[C@@H](N)CN3C(=O)CNC(=O)[C@H](Cc3ccc(C(=O)O)cc3)NC(=O)[C@H](Cc3c[nH]c4ccccc34)NC2=O)cc1
# B6: SEQ ID NO: 178 (Example No. 178) (peptide)
# peptide: cyclo([3AzaPhe4AcPip]W[Phe(4-COOH)]G[Pro(trans-4-NH2)][1Nal(3S-Me)]D[dNMeA]G[Bip(4'-COOH)]KL[dL][h3Pal(5-CN)])
# SMILES: CC(=O)N1CCN(c2ccc(C[C@@H]3NC(=O)[C@H](CCc4cncc(C#N)c4)NC(=O)[C@@H](CC(C)C)NC(=O)[C@H](CC(C)C)NC(=O)[C@H](CCCCN)NC(=O)[C@H](Cc4ccc(-c5ccc(C(=O)O)cc5)cc4)NC(=O)CNC(=O)[C@@H](C)N(C)C(=O)[C@H](CC(=O)O)NC(=O)[C@H]([C@@H](C)c4cccc5ccccc45)NC(=O)[C@@H]4C[C@@H](N)CN4C(=O)CNC(=O)[C@H](Cc4ccc(C(=O)O)cc4)NC(=O)[C@H](Cc4c[nH]c5ccccc45)NC3=O)cn2)CC1
# B7: SEQ ID NO: 177 (Example No. 177) (peptide)
# peptide: cyclo([3AzaPhe4AcPip]W[Phe(4-COOH)]G[Pro(trans-4-NH2)][1Nal(3S-Me)]D[dNMeA]G[Bip(4'-COOH)]KL[dA][hCha])
# SMILES: CC(=O)N1CCN(c2ccc(C[C@@H]3NC(=O)[C@H](CCC4CCCCC4)NC(=O)[C@@H](C)NC(=O)[C@H](CC(C)C)NC(=O)[C@H](CCCCN)NC(=O)[C@H](Cc4ccc(-c5ccc(C(=O)O)cc5)cc4)NC(=O)CNC(=O)[C@@H](C)N(C)C(=O)[C@H](CC(=O)O)NC(=O)[C@H]([C@@H](C)c4cccc5ccccc45)NC(=O)[C@@H]4C[C@@H](N)CN4C(=O)CNC(=O)[C@H](Cc4ccc(C(=O)O)cc4)NC(=O)[C@H](Cc4c[nH]c5ccccc45)NC3=O)cn2)CC1
# B8: SEQ ID NO: 174 (Example No. 174) (peptide)
# peptide: cyclo([3AzaPhe4AcPip]W[Phe(4-COOH)]G[Pro(trans-4-NH2)][1Nal(3S-Me)]D[dNMeA]G[Bip(4'-COOH)][Dab]L[dA][hCha])
# SMILES: CC(=O)N1CCN(c2ccc(C[C@@H]3NC(=O)[C@H](CCC4CCCCC4)NC(=O)[C@@H](C)NC(=O)[C@H](CC(C)C)NC(=O)[C@H](CCN)NC(=O)[C@H](Cc4ccc(-c5ccc(C(=O)O)cc5)cc4)NC(=O)CNC(=O)[C@@H](C)N(C)C(=O)[C@H](CC(=O)O)NC(=O)[C@H]([C@@H](C)c4cccc5ccccc45)NC(=O)[C@@H]4C[C@@H](N)CN4C(=O)CNC(=O)[C@H](Cc4ccc(C(=O)O)cc4)NC(=O)[C@H](Cc4c[nH]c5ccccc45)NC3=O)cn2)CC1
# B9: SEQ ID NO: 173 (Example No. 173) (peptide)
# peptide: cyclo([TyrEtNAc]W[Phe(4-COOH)]G[Pro(trans-4-NH2)][Trp(βS-Me,4-F)]D[dNMeA]G[Bip(4'-COOH)]WS[dA][TyrEtNAc])
# SMILES: CC(=O)NCCOc1ccc(C[C@@H]2NC(=O)[C@H](Cc3ccc(OCCNC(C)=O)cc3)NC(=O)[C@@H](C)NC(=O)[C@H](CO)NC(=O)[C@H](Cc3c[nH]c4ccccc34)NC(=O)[C@H](Cc3ccc(-c4ccc(C(=O)O)cc4)cc3)NC(=O)CNC(=O)[C@@H](C)N(C)C(=O)[C@H](CC(=O)O)NC(=O)[C@H]([C@@H](C)c3c[nH]c4cccc(F)c34)NC(=O)[C@@H]3C[C@@H](N)CN3C(=O)CNC(=O)[C@H](Cc3ccc(C(=O)O)cc3)NC(=O)[C@H](Cc3c[nH]c4ccccc34)NC2=O)cc1
# B10: SEQ ID NO: 171 (Example No. 171) (peptide)
# peptide: cyclo([TyrEtNAc]W[Phe(4-COOH)]G[Pro(trans-4-NH2)][Trp(βS-Me,4-F)]D[dNMeA]G[Bip(4'-COOH)]WL[dS][hTyr])
# SMILES: CC(=O)NCCOc1ccc(C[C@@H]2NC(=O)[C@H](CCc3ccc(O)cc3)NC(=O)[C@@H](CO)NC(=O)[C@H](CC(C)C)NC(=O)[C@H](Cc3c[nH]c4ccccc34)NC(=O)[C@H](Cc3ccc(-c4ccc(C(=O)O)cc4)cc3)NC(=O)CNC(=O)[C@@H](C)N(C)C(=O)[C@H](CC(=O)O)NC(=O)[C@H]([C@@H](C)c3c[nH]c4cccc(F)c34)NC(=O)[C@@H]3C[C@@H](N)CN3C(=O)CNC(=O)[C@H](Cc3ccc(C(=O)O)cc3)NC(=O)[C@H](Cc3c[nH]c4ccccc34)NC2=O)cc1
# B11: SEQ ID NO: 179 (Example No. 179) (peptide)
# peptide: cyclo([3AzaPhe4AcPip]W[Phe(4-COOH)]G[Pro(trans-4-NH2)][1Nal(3S-Me)]D[dNMeA]G[Bip(4'-COOH)]KL[dNle][h3Pal(5-CN)])
# SMILES: CCCC[C@H]1NC(=O)[C@H](CC(C)C)NC(=O)[C@H](CCCCN)NC(=O)[C@H](Cc2ccc(-c3ccc(C(=O)O)cc3)cc2)NC(=O)CNC(=O)[C@@H](C)N(C)C(=O)[C@H](CC(=O)O)NC(=O)[C@H]([C@@H](C)c2cccc3ccccc23)NC(=O)[C@@H]2C[C@@H](N)CN2C(=O)CNC(=O)[C@H](Cc2ccc(C(=O)O)cc2)NC(=O)[C@H](Cc2c[nH]c3ccccc23)NC(=O)[C@H](Cc2ccc(N3CCN(C(C)=O)CC3)nc2)NC(=O)[C@H](CCc2cncc(C#N)c2)NC1=O
# B12: SEQ ID NO: 169 (Example No. 169) (peptide)
# peptide: cyclo([TyrEtNAc]W[Phe(4-COOH)]G[Pro(trans-4-NH2)][Trp(βS-Me,4-F)]D[dNMeA]G[Bip(4'-COOH)]WL[dK][hTyr])
# SMILES: CC(=O)NCCOc1ccc(C[C@@H]2NC(=O)[C@H](CCc3ccc(O)cc3)NC(=O)[C@@H](CCCCN)NC(=O)[C@H](CC(C)C)NC(=O)[C@H](Cc3c[nH]c4ccccc34)NC(=O)[C@H](Cc3ccc(-c4ccc(C(=O)O)cc4)cc3)NC(=O)CNC(=O)[C@@H](C)N(C)C(=O)[C@H](CC(=O)O)NC(=O)[C@H]([C@@H](C)c3c[nH]c4cccc(F)c34)NC(=O)[C@@H]3C[C@@H](N)CN3C(=O)CNC(=O)[C@H](Cc3ccc(C(=O)O)cc3)NC(=O)[C@H](Cc3c[nH]c4ccccc34)NC2=O)cc1
# Biological target: Recombinant human IL-1β (BioLegend 579404) (human, UniProt P01584 117-269)
# Experiment: cell-based or functional assay
row,Binder,MRC5 IC50 [nM]
1,B1,0.017
2,B2,0.021
3,B3,0.016
4,B4,0.0966
5,B5,0.246
6,B6,0.019
7,B7,0.013
8,B8,0.015
9,B9,0.959
10,B10,0.145
11,B11,0.017
12,B12,0.112
